We go through two substances from article PMC6868236.

The assay addresses Tra1 (S. pombe) (UniProt Q9HFE8). The assay can be described thus: Spt7-TAP tandem affinity purification of SAGA, LC-MS/MS label-free quantification (LFQ). The following applies: parent: 1.0.
Chain of UniProt Q9HFE8 (Q9HFE8 whole entry): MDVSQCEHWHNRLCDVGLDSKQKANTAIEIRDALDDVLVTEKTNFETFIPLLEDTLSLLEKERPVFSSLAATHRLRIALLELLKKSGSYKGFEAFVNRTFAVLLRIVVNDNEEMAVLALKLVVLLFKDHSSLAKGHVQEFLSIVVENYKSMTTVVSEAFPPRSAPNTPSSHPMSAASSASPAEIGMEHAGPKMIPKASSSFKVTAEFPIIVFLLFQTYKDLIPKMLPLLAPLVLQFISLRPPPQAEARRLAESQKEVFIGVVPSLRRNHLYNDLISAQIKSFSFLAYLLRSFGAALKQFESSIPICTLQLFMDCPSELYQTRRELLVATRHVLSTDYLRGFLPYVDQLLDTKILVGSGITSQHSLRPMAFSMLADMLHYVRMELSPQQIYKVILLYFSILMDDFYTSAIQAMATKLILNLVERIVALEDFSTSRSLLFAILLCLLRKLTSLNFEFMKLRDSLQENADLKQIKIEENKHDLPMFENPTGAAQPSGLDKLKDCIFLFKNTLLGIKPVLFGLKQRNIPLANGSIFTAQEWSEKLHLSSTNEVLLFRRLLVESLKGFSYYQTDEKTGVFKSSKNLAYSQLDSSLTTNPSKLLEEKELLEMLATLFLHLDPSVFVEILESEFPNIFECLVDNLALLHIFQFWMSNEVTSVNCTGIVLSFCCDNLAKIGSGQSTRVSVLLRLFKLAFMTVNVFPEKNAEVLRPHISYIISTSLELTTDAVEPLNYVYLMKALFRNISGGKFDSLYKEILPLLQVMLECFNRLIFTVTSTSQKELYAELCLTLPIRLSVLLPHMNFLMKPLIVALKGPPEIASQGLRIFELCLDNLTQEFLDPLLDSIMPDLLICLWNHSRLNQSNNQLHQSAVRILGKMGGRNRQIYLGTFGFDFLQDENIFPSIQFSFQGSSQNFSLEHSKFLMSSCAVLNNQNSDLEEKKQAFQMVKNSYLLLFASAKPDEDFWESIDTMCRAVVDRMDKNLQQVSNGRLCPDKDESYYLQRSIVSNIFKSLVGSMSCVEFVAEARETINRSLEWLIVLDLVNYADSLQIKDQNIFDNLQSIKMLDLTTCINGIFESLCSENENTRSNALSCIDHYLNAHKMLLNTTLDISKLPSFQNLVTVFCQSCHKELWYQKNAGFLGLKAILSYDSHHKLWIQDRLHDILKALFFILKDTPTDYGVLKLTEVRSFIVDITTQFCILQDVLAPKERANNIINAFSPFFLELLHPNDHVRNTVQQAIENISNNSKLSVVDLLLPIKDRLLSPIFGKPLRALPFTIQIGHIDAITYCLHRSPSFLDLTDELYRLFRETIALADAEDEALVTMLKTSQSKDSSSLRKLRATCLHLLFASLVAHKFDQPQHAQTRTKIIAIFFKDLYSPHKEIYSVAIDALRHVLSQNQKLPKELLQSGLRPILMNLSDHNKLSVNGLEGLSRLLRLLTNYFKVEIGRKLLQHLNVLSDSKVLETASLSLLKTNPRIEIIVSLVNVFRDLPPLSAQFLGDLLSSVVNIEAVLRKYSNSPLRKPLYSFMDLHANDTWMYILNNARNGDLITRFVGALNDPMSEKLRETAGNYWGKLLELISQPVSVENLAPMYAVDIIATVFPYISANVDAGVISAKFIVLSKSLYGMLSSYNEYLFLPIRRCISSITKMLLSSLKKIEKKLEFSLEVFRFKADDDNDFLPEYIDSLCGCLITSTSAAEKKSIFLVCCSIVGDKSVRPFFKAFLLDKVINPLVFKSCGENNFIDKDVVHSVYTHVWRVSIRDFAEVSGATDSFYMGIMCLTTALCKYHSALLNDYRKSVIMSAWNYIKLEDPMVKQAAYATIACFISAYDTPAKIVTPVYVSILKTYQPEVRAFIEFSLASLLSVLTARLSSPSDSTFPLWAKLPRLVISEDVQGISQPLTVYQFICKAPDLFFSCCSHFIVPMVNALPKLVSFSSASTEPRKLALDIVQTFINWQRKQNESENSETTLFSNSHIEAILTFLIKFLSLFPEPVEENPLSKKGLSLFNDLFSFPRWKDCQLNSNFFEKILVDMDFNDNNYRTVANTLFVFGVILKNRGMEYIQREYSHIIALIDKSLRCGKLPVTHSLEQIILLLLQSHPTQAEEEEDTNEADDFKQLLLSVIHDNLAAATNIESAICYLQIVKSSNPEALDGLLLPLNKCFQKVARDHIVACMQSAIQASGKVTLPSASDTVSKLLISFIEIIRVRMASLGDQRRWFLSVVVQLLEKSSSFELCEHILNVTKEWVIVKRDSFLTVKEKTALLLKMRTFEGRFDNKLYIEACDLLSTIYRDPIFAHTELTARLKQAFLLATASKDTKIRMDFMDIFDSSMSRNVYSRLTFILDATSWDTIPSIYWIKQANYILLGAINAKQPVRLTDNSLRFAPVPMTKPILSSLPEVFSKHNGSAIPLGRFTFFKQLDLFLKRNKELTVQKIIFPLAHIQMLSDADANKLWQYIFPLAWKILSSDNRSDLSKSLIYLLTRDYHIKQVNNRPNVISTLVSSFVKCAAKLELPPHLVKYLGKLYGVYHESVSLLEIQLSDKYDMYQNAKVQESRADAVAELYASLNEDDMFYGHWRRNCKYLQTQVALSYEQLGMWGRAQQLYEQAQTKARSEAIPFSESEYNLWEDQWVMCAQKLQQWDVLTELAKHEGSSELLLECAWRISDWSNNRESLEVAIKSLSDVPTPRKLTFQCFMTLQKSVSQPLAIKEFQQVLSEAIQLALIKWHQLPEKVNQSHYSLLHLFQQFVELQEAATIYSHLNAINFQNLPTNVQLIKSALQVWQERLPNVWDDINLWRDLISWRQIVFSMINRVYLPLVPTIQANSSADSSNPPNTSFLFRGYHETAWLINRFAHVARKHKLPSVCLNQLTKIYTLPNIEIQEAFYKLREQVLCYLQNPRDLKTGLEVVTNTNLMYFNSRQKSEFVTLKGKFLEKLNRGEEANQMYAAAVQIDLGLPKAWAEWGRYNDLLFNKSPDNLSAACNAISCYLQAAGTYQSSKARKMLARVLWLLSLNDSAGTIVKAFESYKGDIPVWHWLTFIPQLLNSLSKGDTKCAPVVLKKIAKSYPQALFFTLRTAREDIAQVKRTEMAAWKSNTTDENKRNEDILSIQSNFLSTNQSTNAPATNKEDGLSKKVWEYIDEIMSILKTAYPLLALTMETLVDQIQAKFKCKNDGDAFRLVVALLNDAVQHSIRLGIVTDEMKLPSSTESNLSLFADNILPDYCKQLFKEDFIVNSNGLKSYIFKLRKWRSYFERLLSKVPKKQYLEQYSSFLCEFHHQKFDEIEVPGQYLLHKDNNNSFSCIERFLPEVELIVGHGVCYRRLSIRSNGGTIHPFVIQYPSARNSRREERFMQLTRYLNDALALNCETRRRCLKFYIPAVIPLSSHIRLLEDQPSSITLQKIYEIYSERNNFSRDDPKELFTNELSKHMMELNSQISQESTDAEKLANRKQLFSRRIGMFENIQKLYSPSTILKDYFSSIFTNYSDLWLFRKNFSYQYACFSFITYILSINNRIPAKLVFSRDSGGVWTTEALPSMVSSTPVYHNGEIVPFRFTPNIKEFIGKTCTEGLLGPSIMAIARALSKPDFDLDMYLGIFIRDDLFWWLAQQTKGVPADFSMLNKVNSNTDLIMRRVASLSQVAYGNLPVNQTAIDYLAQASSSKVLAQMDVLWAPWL

As for “Spt20 (S. pombe) (from UniProt O14174) FIEN>AAAA (HIT sequence … changed to …)”, the ratio to parent was 0.02.
With “Spt20 (S. pombe) (from UniProt O14174) RRKR>AAAA (HIT sequence … changed to …)”, the ratio to parent came to 0.51.
